Test results published in IntAct's records for PubMed 11264384.

Target: nef_hv1a2 nef (UniProt P03407)
Sequence (P03407 whole entry): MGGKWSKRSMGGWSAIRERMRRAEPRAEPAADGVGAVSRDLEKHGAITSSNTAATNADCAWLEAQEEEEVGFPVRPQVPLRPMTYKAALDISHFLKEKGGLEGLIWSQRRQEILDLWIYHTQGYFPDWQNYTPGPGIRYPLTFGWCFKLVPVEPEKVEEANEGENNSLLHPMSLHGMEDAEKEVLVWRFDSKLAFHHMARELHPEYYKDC

T-cell surface glycoprotein CD4 (Homo sapiens) (from UniProt P01730) L438A;L439A
effect of a mutation on the interaction: disrupting interaction strength
